The values that follow come from the domain aggregation screens of Martell et al. (2025).

This data set in a line: soluble fraction after stress (log2 fold change); higher = more stays soluble; pooled small domains, quantitative proteomics. Particulars: stress: pH 4. The gist of the method:
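Pooled custom libraries of small protein domains were subjected to pH 4 and measured by high-throughput quantitative proteomics. The log2 fold change in soluble amount per domain is reported, higher values meaning more remained soluble. This is used as a measure of aggregation propensity.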

For “HMVNGEFIDRIKVILQENNATRKKDRLTKTRMYQLLQEEGYEGSYSAFTYQVRIIEEELGINNK”, the “soluble fraction (log2)” value was at least 0.43.
To “HMVNSIQIHKKLRLDKRAGSDNWYARLTLPNGKRLVKTTKTEDIETAKEVALRLYYEVDARIQNKLPAT” belongs -0.158.
Regarding “HMVPADVQHLRDIVDTMTEKQQLVYKLHVLEGYTFTEIAKLMGTSIPNVKKHYDKAILFIKNNF”, the “soluble fraction (log2)” value is -0.165.
To “HMVPEEEATKISVQNVGASDYNFTVKGVQANDPTLTLVRGKTYEFDVTSLGHPFWIKTQKVTGSSSQY” belongs -0.139; to “HMVPLSPRFFDIFRKRKDLTRQNVDVYFRDHPTEITAFERYIKGLVSQSYIPAERADALLLVASQYKAK”, 0.0777.
To “HMVPSTAVIFTELVSMRSEPATKSPVTHQLTKGTAITINEEKDGWYQVTDQTGNSGWIVKWAVKPTYFTNP” belongs 0.31.
Consider “HMVPTYEAYVGKEGLVVGTLRPAGTAEFDGERLDVVSEGEYLEAGTRVQIVRTEGRRIVVRKIN”, for which the “soluble fraction (log2)” value is -0.233.
To “HMVPVVGTTIPHEFIGKFGSARVMLKPAVEGSGVIAGGSARAVLELAGYKDIKTKVLGTNNPRNVVYATMN” belongs 0.196.
To “HMVQDDDPNSVAKFIDQVIESNPEQVEQYRSGKEKVFNFFLGQTMRLSKGKANPDLVSELLKEKLS” belongs -0.00692.
The value for “HMVQIQDIAFSEFLNELEKGNILDVNIKGDLINGNMLDGKKFKTYAPYDPSLVEKLSKQNVTINVEPVN” was -0.06; that for “HMVQMKIRAYELEPNDFFIKQNMTYRVMRIQNGMIYAKHLLNSTPITFGAKSMEFVLWTGKYS” was -1.05; that for “HMVQQTEEDVIRDMYVEGKIFTIGEEVTDTYTGVTGKIIRRGTNYVTFMSEDGETYKKWLYEIELA” was -1.82.
In the case of “HMVRDGDTFVVPKMDRFARNVEDTLHLVRELTERGVIFQMGHTVYDPHDPWSKLFLTFLAAIAEA”, the “soluble fraction (log2)” value came out at 0.191.
As to “HMVREVGYNAFLAMLDSGAVKEVARDESEGQITFLATDEKGKERVYKTGIWPDDTLTERLNTAGVEFA”, the “soluble fraction (log2)” value is -0.941.
The value for “HMVREVSYDQFLHFVEAKQVGMVYQDGESLMFTLKEDVEKEWGVTAYKTGLWPDANLTDRLLDAGVVFS” was -1.65; that for “HMVRGNLAEELLKLREEEGISFQEAGARSGIARSTISQVVNQGLRLKPNQEESLWRVIEEVRGVKER” was -0.0263.
The value for “HMVRSEDLIGLQGRITLATDVETRGFVELSVKGSLLRRPALSLKGPLAKNTAVVVTASNDHTLEVEAL” was -0.77; that for “HMVRSKLEIVPVPEDAVVKIAGLKRLTYQAYQNEDVPYMVYKNGYEAQSGTVFMDTDKTLTVTLEESP” was 0.151; that for “HMVSAMLLHKKEILNLLAEEPEALHFASLLRAFGGRHIKNELKQIVDDLVRSGEILRLRGNRYTLPGADN” was -0.149.
Turning to “HMVSATKAFVNGGNIVVSSPKATRVAVYNVAGQKVAEQAFAGKATIKASDFAKGIYVLKFNDNTVLKLT”, the “soluble fraction (log2)” value was -0.0226.
To “HMVSDAELTSQATTAITAYPGTSVEVKEGQAHLSGTFATEADKQAAIDALKKIQDVKDVHDMATV” belongs 0.0294; to “HMVSDSAELSAFVADVIKENAQAVADYKGGKTNVFGWLMGQIIKKSGGKATPAAAAALLKAELEK”, -0.14.
To “HMVSKQVTVNGIQYYQYTVQKSEGFYAISTKFGVTQDDIILANPSTKEGLRVGQEILIPIKT” belongs -0.0976; to “HMVSLLDWAYKQVRRMLFSGDLPQGQKIVVAQLANQLSISPTPVKEALNRLAVEGLLEAVPRRGFQVR”, -1.02.
To “HMVSQELIMLGNRIREYRKERGFSQEILAEKSGVSTNTISRIEGGQMAMSVGILQRIVKALGVDANVMLG” belongs 0.12; to “HMVSQKPKERELWFREQLELAGLRLDPHAISAINETLGNDTGRFPGIIDTLLSTYGAGKKLSYDDVVMFL”, -1.8; to “HMVSRAFEEETVKRAESGNQEAALFALELAIREIEHSYEKSKIIDYFVSKVRLFLDNGVSLERALGIH”, -0.0689.
As for “HMVSRKIENPYWANKEKQHIIAEFFYPDTNKRVTASIMNDGSNRDYEEILRGYSIEQIDANTNRRLEER”, the “soluble fraction (log2)” value was -0.811.
To “HMVSSEGLASGIERMLVEFGLETDKGRRFAMWSLLYMLGSAPDLDVAFKDPRDREAARTFMDLLDQANA” belongs -0.99; to “HMVSSVAAISQMIDEKDRYTSEHSHRVAEYARLIGAHMGFAGEELDSLYRSALLHDIGKIAVPDAILNK”, -0.417.
The value for “HMVSTDPVHLFNLGTANRRAGRASEAITSYRKFMEAAPQHPQVPEARAYIHDMEVLLQERQKSEQAASQLS” was -0.0261; that for “HMVSTSVTVTGDLNVRADSRADSDLVGALIPGQTVTRLAVLDNGWSKIRFDDGAGTVVEGYVLSEYLQADG” was 0.131.
The value for “HMVSVEINTVERDETFRKMFTSGWKPENRIQALAVEQAKKNGLGRMSEVAGLASFRGIWKQATEQVALEA” was -0.0443; that for “HMVSVLDHIVGIGAKRRQSLWNHFGTIDKIKAASIDELLKAPGMNRPSAEAVYYFFEAQRQLRGK” was 0.0106.
Regarding “HMVTEKNALTIEIEDLTKRFGNQRESLLPILQEVQLKHGHISDFAQQEIARLLDIHPVEVYGVVTFFSFLS”, the “soluble fraction (log2)” value is -2.43.
To “HMVTGSIYERKGIYYAIVSYYVDGRRKQKSVSTGLSVKGNKRRALEFLENLKRTYETKESMENMD” belongs at least 0.43; to “HMVTIEEMMDRLLTRVQRAVNMSFSEFSGEAKEKVEVIVSFLALLELVKQGAVDVLQHENFSDIRIENT”, -0.841.
To “HMVTKQKKLVLTIIERSHGHLSAEEIFFRAREEMPNIALGTVYRNLNSLTEEGIVRRITLPGTSDRFDT” belongs -0.506; to “HMVTKTTYAYERLKREIMDGTLGQGEKLVVNAISQRYQVSPMPIREALLKLEQEGLVQSAPHRGAWVHK”, 0.0193; to “HMVTNELFGTRLRAFRKEKGLTIEQLAERVGLSPNYLGDIERGKKLPSMATFIRLVNELDISADEL”, 0.174.
The value for “HMVTQVDYGTFLTRIDEGKVKSVEIQDNQIAFTAIDEAGKENIYVTGKVNDPELVDRLLAADIEDFSQVIP” was -1.29.
On to “HMVTTTEAAKMLLVNAGHDVIKDGLTGASWASNTMKLADADGLLASVATKPNDALPRQYAAQMIYN”, for which the “soluble fraction (log2)” value worked out at 0.265.
Take “HMVVANTAIKSELQNIVANENKQAPLSDQKIVDQLKQAGFDISRRTVVKYRDALGIPTSRNRKR”: the “soluble fraction (log2)” value stood at 0.112.
The value for “HMVVEGMQFDRGYLSQYMVTDNEKMVADLENPYILITDKKISNIQEILPLLESILQSSRPLLIIADD” was -0.573; that for “HMVVGYRYVTNVANAVNFRQKPSASSTIITTIPYGTRIGYVEDANSEYARVKYDNMYGYVAKFYLSNYSPP” was 0.276; that for “HMVVLNQEQIKFIDHYLQVSKVRYVDVRSELTDHIATAVELKMQDEALDFYEAFKAFIAVNKSQLLQRN” was -0.975.
The value for “HMVVNERIKKLRRSLDLTQQEFADRIGVKRNTIANYEIGRNEPIDSVLELIVREFGVSKQWLLDGTGEMF” was 0.0586; that for “HMVVPRSFKYEVLAHGGWAGNAQRYQTKEEALHAGLALSRRWTAVEDYRAVPSDDLPNQPAL” was 0.127.
The value for “HMVVPSNPDELKGSFSLAEVASGYGLEVAAILEKAGWPADTDPNVKMRDAANAIGRDSTDIRNAVKALLKS” was -0.468; that for “HMVVVPPPATPKPGDVTGDNKINGYDLSILLSNWKRPGATLAQGDLNKDGVVNGLDLSIMLLNWG” was 0.0857.
With “HMVVYDAELLLNINPGMSYEEVKEMLGDPGMIIAGNDAENSVYRWSTGGISFMGRFENGALIRKSIISP”, the “soluble fraction (log2)” value is -0.916.
The value for “HMVWNVEQIKRAVDQLPDGYRVVFTLYLFEGYDHREIADILGISEGGSKSQFNRAKSKLKEILTAMS” was -1.2; that for “HMVWTAGEVVERIRERVGHPATIRELMQVLTIPPEDRHRFRRRIMQLVEAGELIRIRGNRYGLAD” was 0.124.
The value for “HMVYNGYYAKSFNGYVVILNGDEKTVYEYTQIPIHLLPEDIRSSVMSGYYLENETDLYNFLENYS” was -0.211.
The value for “HMWAVDFVLLDKDDQRIGNAVAYRDDRTKGMDEEVYRTVPEEELYASTGIQKQIFNSIYQLMAWKK” was -1.25; that for “HMWDRFGELDSAEEINRIAAAELREGDIDALKVLAEENGLDKDDVEDYIDRLIDELTTPELAAIGKLDV” was -0.0336; that for “HMWKQISSEAELLPAVRSVIQANPGEAEKLRNGEMAPLEFLTGLVMKKTNGMAVPQIVKTLIKKELKI” was 0.0805.
With “HMWKSEAGKKIIESLAQKYNKSNAQIILRWHIQMGYIVIPGARSENHIKENINIFDFKLTNEEINNILKLN”, the “soluble fraction (log2)” value was -0.124.
Take “HMWMTAQDFRNSSLPWSATTSYNEGQSVRVVDGSNTYYYIAIVKTQPGQSPTTHPTSWREVDA”: the “soluble fraction (log2)” value was 0.311.
The value for “HMWNLPDPVVRPEGNVTVYENFKNTVEVLNREADLVLKFLQNEFGTSANIDDTGRARLTGSFSTDRVSSVI” was -0.529; that for “HMWSNTAVIDRIRQLHEEGQPISSQSVQVNHKSLYMAAIKRFRGWKRAVEAAGIDYRQIRLR” was 0.404.
To “HMWWTPIILRDALFGVQRFEDFQKNLDVSRATLSSRLTRLVDEGLMEKVEYQQHPVRHEYVLTEKGR” belongs 0.194; to “HMYAGTWTTESGQWKYRQDDGTYAKGWLQDTDGRWYYFDANGRMLSNTATPDGYQVGEDGAWVNH”, -0.651; to “HMYAMTAEDWIVSGNRKYINDDLQGAIADYTKAIEIDPNYAAIYLVRGKAKYELKNYQGAIEDYTKAIE”, -1.48.
In the case of “HMYAPKIETIQVPQDKIREVIGTGGKVIREIVETTGAKIDIGDTGLIKVASSDGEAIRAALDWINSIVAE”, the “soluble fraction (log2)” value was -0.758.
With HMYATQLLQLEEMGFFDRAENIRALRATNGNVNAAVERL, the “soluble fraction (log2)” value is -0.114.
The value for “HMYDASELNKALEEAKKLDLNNYTEESSEALKNAISKAEEALLSKDKETINSALEELNKAMDSL” was -0.615.
In the case of “HMYDEAAIRKAVMTFVTDNRDERLDLAKISAVLTSKFGNINFDELGYKRFSSFIDSFPELRRNNTFVSLR”, the “soluble fraction (log2)” value is -0.193.
The value for “HMYDFGVILQKLRKEKGFTQEQLARLIHKESSIISRYEKGLQNPTFETVKEFAAIFNVSMDYLAG” was -0.255.
